Changes are numbered by the printed parent chain.
Tests used:
Experiment in all cases: in vitro translated PTP HSCF mutant precipitated with 1 or 10 µg/ml GST PST PIP
[1] = target: T1, PTP HSCF with R436 mutated to alanine, HA tagged (UniProt Q61152 1-453)
T1 construct: range 1-453; also called HSCF R436
T1 sequence (looked up): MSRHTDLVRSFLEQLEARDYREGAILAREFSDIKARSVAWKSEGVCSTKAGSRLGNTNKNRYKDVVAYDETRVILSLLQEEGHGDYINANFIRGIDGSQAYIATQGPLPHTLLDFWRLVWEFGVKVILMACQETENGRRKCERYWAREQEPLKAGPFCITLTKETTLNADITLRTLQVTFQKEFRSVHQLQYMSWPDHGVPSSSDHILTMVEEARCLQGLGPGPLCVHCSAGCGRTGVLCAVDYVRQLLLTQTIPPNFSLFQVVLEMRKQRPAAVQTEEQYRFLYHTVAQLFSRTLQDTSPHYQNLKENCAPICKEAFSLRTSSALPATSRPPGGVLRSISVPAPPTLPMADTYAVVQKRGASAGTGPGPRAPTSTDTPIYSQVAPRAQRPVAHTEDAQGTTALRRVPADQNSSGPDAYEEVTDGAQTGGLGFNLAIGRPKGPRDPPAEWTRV
Experimental: (§1) Multiple bands precipitated with the GST PST PIP fusion protein are apparently C-terminal proteolyzed products of the PTP. Also shown are GST PST PIP precipitations (10 μg/ml) performed on a double mutant of PTP HSCF (R+W) with both residues $R444$ and $W450$ mutated to alanine (bottom panel FIG. 14 A/2). B. COS cells were co-transfected with a 10:1 ratio of plasmids encoding hemagglutinin (HA) tagged PTP HSCF with the illustrated alanine substitutions or a mutant of PTP HSCF deleted for the C-terminal 24 amino acids (PTP $HSCFD24$) and wild type PST PIP with a C-terminal FLAG epitope tag, respectively. Transfected cell lysates were immunoprecipitated with anti-HA monoclonal antibodies and the precipitates were blotted with anti-PST PIP polyclonal antibody to detect the relative amounts of PST PIP complexed with either wild type or different mutant forms of PTP HSCF. Lysates were also immunoprecipitated with anti-HA antibody and blotted with the same antibody to insure equal expression of PTP HSCF. Equal expression of PSTPIP was determined by immunoprecipitating lysates with anti-FLAG monoclonal antibody and blotting with anti-PST PIP polyclonal antibody.
(§2) In vitro binding analyses between various PTP HSCF and PST PIP constructs were performed as previously described (Spencer et al, (1997), supra). Briefly, plasmids were transcribed and translated in vitro using the TnT Rabbit Reticulocyte Lysate System (Promega). Samples were diluted in 50 mM HEPES, pH 7.2, 1% triton X-100, 10% glycerol, 100 mM NaCl, and 2 µg/ml each of leupeptin, pepstatin, aprotinin and PMSF (lysis buffer). Samples were than reacted with GST fusion proteins at various concentrations, and the bound proteins were centrifuged using glutathione-sepharose beads and analyzed on SDS polyacrylamide gels. C-terminally-derived peptide inhibition studies were performed by incubating the GST fusion protein binding reactions in the presence of 10 µg/ml of the indicated peptides. Peptides were produced by FMOC-protected amino acids as previously described (Spencer et al, (1997), supra). In vivo interactions between various forms of PTP HSCF and PST PIP were also performed as previously described (Spencer et al, (1997), supra).

[2] = target: T2, PTP HSCF with P440 mutated to alanine, HA tagged (UniProt Q61152 1-453)
T2 construct: range 1-453; also called HSCF P440
T2 sequence (looked up): T1 sequence (looked up) with A436R, P440A
Experimental: as §1, §2

[3] = target: T3, PTP HSCF with G442 mutated to alanine, HA tagged (UniProt Q61152 1-453)
T3 construct: range 1-453; also called HSCF G442
T3 sequence (looked up): T1 sequence (looked up) with A436R, G442A
Experimental: as §1, §2

[4] = target: T4, PTP HSCF with W450 mutated to alanine, HA tagged (UniProt Q61152 1-453)
T4 construct: range 1-453; also called HSCF W450
T4 sequence (looked up): T1 sequence (looked up) with A436R, W450A
Experimental: as §1, §2

Measured: binding result

B1: GST-PSTPIP (GST fusion of full-length PSTPIP, amino acids 2-415) (other)
chain: MAQLQFRDAFWCRDFTAHTGYEVLLQRLLDGRKMCKDVEELLRQRAQAEERYGKELVQIARKAGGQTEMNSLRTSFDSLKQQTENVGSAHIQLALALREELRSLEEFRERQKEQRKKYEAIMDRVQKSKLSLYKKTMESKKAYDQKCRDADDAEQAFERVSANGHQKQVEKSQNKAKQCKESATEAERVYRQNIEQLERARTEWEQEHRTTCEAFQLQEFDRLTILRNALWVHCNQLSMQCVKDDELYEEVRLTLEGCDVEGDINGFIQSKSTGREPPAPVPYQNYYDREVTPLIGSPSIQPSCGVIKRFSGLLHGSPKTTPSAPAASTETLTPTPERNELVYASIEVQATQGNLNSSAQDYRALYDYTAQNSDELDISAGDILAVILEGEDGWWTVERNGQRGFVPGSYLEKL
notes: Made in DH5-alpha bacteria from pGEX4T-2; also called GST-full-length PSTPIP; GST PTP PIP; not shown: glutathione S-transferase encoded by pGEX-4T-2 (Pharmacia)
binds: [1] | [2] | [3] | [4]
